Here are results for eight molecules from patent US20110105724A1 (published 2011).

Experiment [1] concerns the target T1, human IL-8 (interleukin-8) (human, UniProt P10145 28-99, limits assumed).
T1 construct: also called recombinant human IL-8
T1 sequence (looked up): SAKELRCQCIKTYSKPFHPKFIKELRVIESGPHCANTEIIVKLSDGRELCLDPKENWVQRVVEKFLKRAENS
Put plainly: SPR (Biacore T100, 25 C), antibody captured on anti-human IgG, IL-8 as analyte, 1:1 model, Run 1. An excerpt: (§1) Briefly the method for Biacore analysis was as follows, anti human IgG (Biacore BR-1008-39) was immobilised on a CM5 sensor chip via primary amine coupling. The humanised or chimeric antibodies were captured on this surface at between 440-500 resonance units (RU's). IL8 was then passed over the captured antibody surface at defined concentrations with regeneration using 3M MgCl₂ after each cycle. A buffer injection over the antibody captured surface was used for double referencing. The run was carried out at 25° C. using HBS-EP buffer, on A Biacore T100 machine. The data was analysed using the 1:1 model in the analysis software inherent to the machine. Table below details the results from two separate runs. Run 1 used IL8 concentrations of 64 nM, 16 nM, 4 nM, 1 nM, 0.25 nM, whilst Run 2 used II8 concentrations 32 nM, 16 nM, 8 nM, 4 nM, 2 nM, 1 nM, 0.5 nM, 0.25 nM.
(In general: Surface plasmon resonance follows binding to a sensor surface in real time, without labels.)

Experiment [2] addresses T1, human IL-8 (interleukin-8). Put plainly: SPR (Biacore T100, 25 C), antibody captured on anti-human IgG, IL-8 as analyte, 1:1 model, Run 2.
Text: as §1

Experiment [3] concerns the target T1, human IL-8 (interleukin-8). Put plainly: ELISA. A general note: An ELISA detects its analyte on a solid surface through an enzyme-linked reagent.
The target of another experiment is T2, recombinant human Groβ (human, UniProt P19875 35-107).
T2 construct: also called Gro-beta
T2 sequence (looked up): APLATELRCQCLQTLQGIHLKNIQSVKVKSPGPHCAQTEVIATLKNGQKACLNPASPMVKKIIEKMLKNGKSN
Nature of the experiment: ELISA, hybridoma supernatant on immobilized recombinant chemokine. From the text: (§2) Hyridoma supernatants were screened for their antibody binding activities to recombinant human IL-8, Groβ and ENA-78, immobilized on ELISA plates. […] They were further assessed for their ability to recognize guinea pig and cynomolgus monkey orthologues. Selected hybridomas were cloned by limiting dilution cloning. The antibody designated 1C1.5E5 was one of the antibodies specific for human IL-8 that were selected for further analysis. Following humanization, the antibody combinations designated A0L0, A0L1, A0L2, AIL0, AIL1, and AIL2 also were determined to retain the ability to bind human IL-8.

The target in the next experiment is T3, recombinant human ENA-78 (human, UniProt P42830 37-114).
T3 sequence (looked up): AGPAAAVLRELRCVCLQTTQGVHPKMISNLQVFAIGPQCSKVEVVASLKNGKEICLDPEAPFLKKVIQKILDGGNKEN
Described as above.
Text: as §2

The target of experiment [4] is T1, human IL-8 (interleukin-8). Put plainly: SPR (Biacore T100/A100), mouse mAb captured on anti-mouse IgG-Fc, IL-8 as analyte, 1:1 model. An excerpt: Protein A or rabbit anti mouse IgG-Fc (Biacore BR-1005-14) was immobilised on a CM5 (Biacore BR-1000-14) chip by primary amine coupling in accordance with the manufactures instructions. Supernatant or purified from parental mouse mAb was captured on the antimouse IgG-Fc surface whilst chimeric antibody was captured on the Protein A surface. After capture defined concentrations of IL8 are passed over the antibody captured surface, a separate capture event was used for each analyte injection. […] An injection of buffer was also passed over the antibody captured surface and this was used for double referencing. For the analysis of the parental supernatant, an additional injection of an irrelevant mAb supernatant was injected over the antibody captured surface to detect any non-specific binding due to supernatant components. The data were analysed using the analysis software inherent to the machine, using the 1:1 model of binding. The work was carried out on the Biacore T100 or A100.

B1: humanized antibody A0L1 (antibody, human IgG1, kappa, V domains shown)
VH: QVQLVQSGAEVKKPGASVKVSCKASGYTFTSYWMHWVRQAPGQGLEWMGEIDPSDSNTNYNQKFKGRVTMTRDTSISTAYMELSRLRSDDTAVYYCARELLHAVYWGQGTLVTVSS
VL: DIQMTQSPSSLSASVGDRVTITCTASQDIHKYISWYQQKPGKAPKLLIHYTSTLQPGVPSRFSGSGSGTDFTFTISSLQPEDIATYYCLQYDNLWTFGQGTKVEIKR
notes: Humanized 1C1.5E5, human IgG1/kappa
Usually Kd stands for the free concentration of one partner at which half of the binding sites on the other are occupied at equilibrium, for simple one-to-one binding. Low readings indicate a tighter complex, high ones a looser complex. Broadly, the koff is the first-order rate constant of dissociation. What is called kon is a measure of how fast the partners come together. The low end stands for slow association, the high end for fast association. In experiment [1], B1 displayed a Kd of 0.0676 nM, a koff of 0.001 s⁻¹ and a kon of 1.49e+07 M⁻¹ s⁻¹. In experiment [2], this molecule came in with a Kd of 0.0679 nM, a koff of 0.00106 s⁻¹ and a kon of 1.56e+07 M⁻¹ s⁻¹.

B2: humanized antibody A1L0 (antibody, human IgG1, kappa, V domains shown)
VH: QVQLVQSGAEVKKPGASVKVSCKASGYTFTSYWMHWVRQAPGQGLEWMGEIDPSDSNTNYNQKFKGKVTMTRDTSISTAYMELSRLRSDDTAVYYCARELLHAVYWGQGTLVTVSS
VL: DIQMTQSPSSLSASVGDRVTITCTASQDIHKYISWYQQKPGKAPKLLIYDTSTLQPGVPSRFSGSGSGTDFTFTISSLQPEDIATYYCLQYDNLWTFGQGTKVEIKR
notes: Humanized 1C1.5E5, human IgG1/kappa; also called AIL0
For the molecule B2, in experiment [1], the Kd stood at 0.0872 nM, the koff is 0.000735 s⁻¹ and the kon was determined as 8.43e+06 M⁻¹ s⁻¹. Moreover, in experiment [2], the Kd is 0.0954 nM, the koff amounted to 0.00075 s⁻¹ and the kon turned out to be 7.87e+06 M⁻¹ s⁻¹.

B3: humanized antibody A1L2 (antibody, human IgG1, kappa, V domains shown)
VH: QVQLVQSGAEVKKPGASVKVSCKASGYTFTSYWMHWVRQAPGQGLEWMGEIDPSDSNTNYNQKFKGKVTMTRDTSISTAYMELSRLRSDDTAVYYCARELLHAVYWGQGTLVTVSS
VL: DIQMTQSPSSLSASVGDRVTITCTASQDIHKYISWYQQKPGKAPKLLIHYTSTLQPGVPSRFSGSGSGTDYTFTISSLQPEDIATYYCLQYDNLWTFGQGTKVEIKR
notes: Humanized 1C1.5E5, human IgG1/kappa; also called AIL2
For B3, the binding result in experiment [3] is reported as “binds”.

B4: humanized antibody A0L2 (antibody, human IgG1, kappa, V domains shown)
VH: QVQLVQSGAEVKKPGASVKVSCKASGYTFTSYWMHWVRQAPGQGLEWMGEIDPSDSNTNYNQKFKGRVTMTRDTSISTAYMELSRLRSDDTAVYYCARELLHAVYWGQGTLVTVSS
VL: DIQMTQSPSSLSASVGDRVTITCTASQDIHKYISWYQQKPGKAPKLLIHYTSTLQPGVPSRFSGSGSGTDYTFTISSLQPEDIATYYCLQYDNLWTFGQGTKVEIKR
notes: as for B1
As to B4, in experiment [3], the binding result is listed as “binds”.

B5: humanized antibody A0L0 (antibody, human IgG1, kappa, V domains shown)
VH: QVQLVQSGAEVKKPGASVKVSCKASGYTFTSYWMHWVRQAPGQGLEWMGEIDPSDSNTNYNQKFKGRVTMTRDTSISTAYMELSRLRSDDTAVYYCARELLHAVYWGQGTLVTVSS
VL: DIQMTQSPSSLSASVGDRVTITCTASQDIHKYISWYQQKPGKAPKLLIYDTSTLQPGVPSRFSGSGSGTDFTFTISSLQPEDIATYYCLQYDNLWTFGQGTKVEIKR
notes: as for B1
In experiment [1], B5 registered a Kd of 0.0712 nM, a koff of 0.000791 s⁻¹ and a kon of 1.11e+07 M⁻¹ s⁻¹. In experiment [2], the Kd turned out to be 0.0816 nM, the koff is 0.000772 s⁻¹ and the on-rate (kon) amounted to 9.5e+06 M⁻¹ s⁻¹.

B6: humanized antibody A1L1 (antibody, human IgG1, kappa, V domains shown)
VH: QVQLVQSGAEVKKPGASVKVSCKASGYTFTSYWMHWVRQAPGQGLEWMGEIDPSDSNTNYNQKFKGKVTMTRDTSISTAYMELSRLRSDDTAVYYCARELLHAVYWGQGTLVTVSS
VL: DIQMTQSPSSLSASVGDRVTITCTASQDIHKYISWYQQKPGKAPKLLIHYTSTLQPGVPSRFSGSGSGTDFTFTISSLQPEDIATYYCLQYDNLWTFGQGTKVEIKR
notes: Humanized 1C1.5E5, human IgG1/kappa; also called AIL1
On to B6, for which the binding result in experiment [3] was “binds”.

B7: mouse monoclonal antibody 1C1.5E5 (antibody, V domains shown)
VH: QVQLQQPGVELVMPGASVKLSCKASGYTFTSYWMHWVKQRPGQGLEWIGEIDPSDSNTNYNQKFKGKATLTLDKSSSTAYMQLTSLTSEDSAVYYCARELLHAVYWGQGTTLTVSS
VL: DIQMTQSPSSLSASLGGKVTITCTASQDIHKYISWFQHKPGKGPRLLIHYTSTLQPGIPSRFSGSGSGRDYSFSISNLEPEDVATYYCLQYDNLWTFGGGTKLDIKR
notes: also called 1C1.5E5 mAb
For B7, the binding result with recombinant human Groβ and in the experiment with recombinant human ENA-78 was “no binding” in each case. In experiment [4], this molecule returned a Kd of 0.0454 nM. The molecule also gave an off-rate constant (koff) in experiment [4] of 0.000184 s⁻¹.

B8: chimeric antibody HcLc made from murine 1C1.5E5 (antibody, human IgG1, kappa, V domains shown)
VH: QVQLQQPGVELVMPGASVKLSCKASGYTFTSYWMHWVKQRPGQGLEWIGEIDPSDSNTNYNQKFKGKATLTLDKSSSTAYMQLTSLTSEDSAVYYCARELLHAVYWGQGTLVTVSS
VL: DIQMTQSPSSLSASLGGKVTITCTASQDIHKYISWFQHKPGKGPRLLIHYTSTLQPGIPSRFSGSGSGRDYSFSISNLEPEDVATYYCLQYDNLWTFGGGTKLDIKR
notes: Murine variable regions on human IgG1 and human kappa constant regions; also called chimera
As to B8, in experiment [1], the Kd turned out to be 0.0184 nM, the koff was 0.000506 s⁻¹ and the kon came to 2.75e+07 M⁻¹ s⁻¹. Moreover, in experiment [2], the Kd was found to be 0.0211 nM, the koff is 0.000566 s⁻¹ and the kon was determined as 2.68e+07 M⁻¹ s⁻¹.
